# The supplement of paper PMC9112550, “Optimization of the antimicrobial peptide Bac7 by deep mutational scanning” (BMC Biology, 2022)
# System: Escherichia coli TOP10
# Assay: shrunken log2 fold change of peptide-encoding DNA abundance (4.5 h post-induction vs induction); higher = less antimicrobial activity (less host growth inhibition)
# Conditions: time post-induction: 4.5 h; library: site-saturation at positions 5, 18, 19, 20
# 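Note: peptides expressed intracellularly from a pBAD plasmid library in pooled LB shake-flask culture, induced with 0.3% L-arabinose, DNA abundance read by NGS, three biological replicates, DESeq2 with apeglm shrinkage.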
row,Sequence,shrunken log2 fold change
1,RRIRKRPPRLPRPRPRPNGWPRP,0.452
2,RRIRWRPPRLPRPRPRPNMEPRP,0.0936
3,RRIRFRPPRLPRPRPRPFQVPRP,-0.309
4,RRIRPRPPRLPRPRPRPCVQPRP,0.283
5,RRIRYRPPRLPRPRPRPPFDPRP,-0.565
6,RRIRYRPPRLPRPRPRPYLGPRP,-0.261
7,RRIRQRPPRLPRPRPRPEHPPRP,0.0713
8,RRIRMRPPRLPRPRPRPWMFPRP,0.00324
9,RRIRHRPPRLPRPRPRPGNRPRP,0.013
10,RRIRERPPRLPRPRPRPRCRPRP,0.113
11,RRIRVRPPRLPRPRPRPWDGPRP,-0.00294
12,RRIRHRPPRLPRPRPRPISFPRP,-0.281
13,RRIRCRPPRLPRPRPRPSEPPRP,-0.184
14,RRIRPRPPRLPRPRPRPMDSPRP,-0.0149
15,RRIRVRPPRLPRPRPRPHTYPRP,-0.154
16,RRIRQRPPRLPRPRPRPRHLPRP,-0.33
17,RRIRQRPPRLPRPRPRPNWKPRP,0.135
18,RRIRERPPRLPRPRPRPAFRPRP,-0.0607
19,RRIRGRPPRLPRPRPRPNPWPRP,0.454
20,RRIRFRPPRLPRPRPRPVWFPRP,-0.182
21,RRIRIRPPRLPRPRPRPQLEPRP,0.000806
22,RRIRSRPPRLPRPRPRPNSEPRP,-0.262
23,RRIRIRPPRLPRPRPRPAGIPRP,-0.437
24,RRIRGRPPRLPRPRPRPVLFPRP,0.752
25,RRIRDRPPRLPRPRPRPKQYPRP,-0.839

row,Sequence,shrunken log2 fold change
1,RRIRPRPPRLPRPRPRPTFRPRP,0.0885
2,RRIRCRPPRLPRPRPRPTDEPRP,2.52
3,RRIRFRPPRLPRPRPRPWMDPRP,-0.347
4,RRIRHRPPRLPRPRPRPIGHPRP,-0.0911
5,RRIRCRPPRLPRPRPRPVGEPRP,0.0624
6,RRIRGRPPRLPRPRPRPNGAPRP,0.827
7,RRIRERPPRLPRPRPRPTFYPRP,-0.18
8,RRIRNRPPRLPRPRPRPMRPPRP,0.537
9,RRIRGRPPRLPRPRPRPWVHPRP,-0.0245
10,RRIRWRPPRLPRPRPRPYLNPRP,-0.777
11,RRIRGRPPRLPRPRPRPWLAPRP,0.0824
12,RRIRCRPPRLPRPRPRPLVEPRP,0.102
13,RRIRMRPPRLPRPRPRPQYWPRP,-0.194
14,RRIRRRPPRLPRPRPRPTLPPRP,0.482
15,RRIRVRPPRLPRPRPRPNEDPRP,-0.168
16,RRIRLRPPRLPRPRPRPYVDPRP,-0.0393
17,RRIRIRPPRLPRPRPRPQKGPRP,-0.33
18,RRIRYRPPRLPRPRPRPYVQPRP,-1.25
19,RRIRARPPRLPRPRPRPGNCPRP,0.061
20,RRIRARPPRLPRPRPRPWKWPRP,-0.163
21,RRIRPRPPRLPRPRPRPNRQPRP,-0.0342
22,RRIRQRPPRLPRPRPRPPEKPRP,0.917
23,RRIRFRPPRLPRPRPRPGWFPRP,0.237
24,RRIRTRPPRLPRPRPRPDFKPRP,-0.172
25,RRIRCRPPRLPRPRPRPFHGPRP,-0.036

row,Sequence,shrunken log2 fold change
1,RRIRFRPPRLPRPRPRPSMAPRP,0.0143
2,RRIRCRPPRLPRPRPRPTDWPRP,0.169
3,RRIRVRPPRLPRPRPRPNYRPRP,0.0968
4,RRIRDRPPRLPRPRPRPGFIPRP,-0.202
5,RRIRIRPPRLPRPRPRPENHPRP,-0.143
6,RRIRARPPRLPRPRPRPDDDPRP,0.257
7,RRIRERPPRLPRPRPRPTMMPRP,-0.0968
8,RRIRMRPPRLPRPRPRPNKRPRP,0.261
9,RRIRQRPPRLPRPRPRPSLHPRP,-0.64
10,RRIRSRPPRLPRPRPRPWSMPRP,-0.176
11,RRIRCRPPRLPRPRPRPEFYPRP,-0.356
12,RRIRNRPPRLPRPRPRPIAHPRP,-0.0737
13,RRIRVRPPRLPRPRPRPFADPRP,-0.0225
14,RRIRNRPPRLPRPRPRPDWDPRP,-0.108
15,RRIRMRPPRLPRPRPRPTDSPRP,0.0971
16,RRIRLRPPRLPRPRPRPLSGPRP,0.15
17,RRIRTRPPRLPRPRPRPCCYPRP,-0.43
18,RRIRMRPPRLPRPRPRPQICPRP,0.058
19,RRIRQRPPRLPRPRPRPERFPRP,-0.0441
20,RRIRVRPPRLPRPRPRPFEAPRP,-0.193
21,RRIRLRPPRLPRPRPRPKQGPRP,-0.0685
22,RRIRERPPRLPRPRPRPLIAPRP,-0.128
23,RRIRMRPPRLPRPRPRPRTNPRP,0.295
24,RRIRRRPPRLPRPRPRPACQPRP,0.835
25,RRIRSRPPRLPRPRPRPSAAPRP,0.614
